# Data published in article PMC10397247.
# T1: P7mSN
# T1 chain: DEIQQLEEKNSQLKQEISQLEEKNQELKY
# T2: P2mSN
# T2 chain: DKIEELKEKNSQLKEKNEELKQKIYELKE
# T3: P4mSN
# T3 chain: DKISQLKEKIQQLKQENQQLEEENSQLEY
# T4: P5mSN
# T4 chain: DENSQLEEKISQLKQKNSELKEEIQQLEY
# T5: P1mSN
# T5 chain: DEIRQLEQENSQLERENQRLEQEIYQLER
# T6: P8mSN
# T6 chain: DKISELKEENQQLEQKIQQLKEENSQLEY
# T7: P6mSN
# T7 chain: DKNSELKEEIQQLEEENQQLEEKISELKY
# T8: P9mSN
# T8 chain: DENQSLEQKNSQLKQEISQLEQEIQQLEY
# T9: P3mSN
# T9 chain: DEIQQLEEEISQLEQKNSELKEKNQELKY
# T10: 4H342-bA
# T10 chain: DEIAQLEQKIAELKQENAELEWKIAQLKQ
# T11: 4H2691-bA
# T11 chain: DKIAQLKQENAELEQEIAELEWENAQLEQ
# T12: 4H3632-bA
# T12 chain: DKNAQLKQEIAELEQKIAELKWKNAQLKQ
# T13: 4H953-bH
# T13 chain: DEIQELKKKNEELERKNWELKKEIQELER
# T14: 4H496-bA
# T14 chain: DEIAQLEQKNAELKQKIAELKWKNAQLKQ
# T15: 4H3070-bA
# T15 chain: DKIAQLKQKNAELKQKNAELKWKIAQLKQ
# T16: P4bH1
# T16 chain: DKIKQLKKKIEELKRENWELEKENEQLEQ
# Columns and labels:
# Assay in all cases: two-hybrid library CCNG1;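 note: natural log of median RNA to DNA barcode read ratio; higher means stronger binding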
# [1] = target: T1, P7mSN
# [2] = target: T2, P2mSN
# [3] = target: T3, P4mSN
# [4] = target: T4, P5mSN
# [5] = target: T5, P1mSN
# [6] = target: T6, P8mSN
# [7] = target: T7, P6mSN
# [8] = target: T8, P9mSN
# [9] = target: T9, P3mSN
# [10] = target: T10, 4H342-bA
# [11] = target: T11, 4H2691-bA
# [12] = target: T12, 4H3632-bA
# [13] = target: T13, 4H953-bH
# [14] = target: T14, 4H496-bA
# [15] = target: T15, 4H3070-bA
# [16] = target: T16, P4bH1
Binder,interaction score [1],interaction score [2],interaction score [3],interaction score [4],interaction score [5],interaction score [6],interaction score [7],interaction score [8],interaction score [9],interaction score [10],interaction score [11],interaction score [12],interaction score [13],interaction score [14],interaction score [15],interaction score [16]
DEIRQLEQENSQLERENQRLEQEIYQLER [P1mSN],-1.01,1.73,-1.09,-1.04,-1.23,-1.17,-0.582,-2.07,-1.95,,,,,,,
DKIAQLKQENAELEQEIAELEWENAQLEQ [4H2691-bA],,,,,,,,,,-0.443,-1.17,-0.861,-0.501,-3.04,0.439,
DKIEELKEKNSQLKEKNEELKQKIYELKE [P2mSN],-0.243,-1.97,-0.0295,-0.724,,-1.26,-0.752,-1.13,-0.831,,,,,,,-1.37
